Common to all, as to assay: FP
In assay [1] the target is T1, GST-tagged UHRF1 TTD–PHD R295A/R296A ( (printed UniProt entry is …, UniProt Q96T88 125-364, R295A | R296A)).
T1 sequence: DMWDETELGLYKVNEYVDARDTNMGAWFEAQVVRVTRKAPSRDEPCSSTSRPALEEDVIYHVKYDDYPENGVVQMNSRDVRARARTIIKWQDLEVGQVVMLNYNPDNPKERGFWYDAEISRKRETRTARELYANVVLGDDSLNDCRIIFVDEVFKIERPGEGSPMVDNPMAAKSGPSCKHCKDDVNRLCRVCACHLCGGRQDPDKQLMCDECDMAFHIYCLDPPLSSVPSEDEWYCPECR

Assay [2] concerns the target T2, GST-tagged UHRF1 TTD–PHD (a.a. 125–364) ( (printed UniProt entry is …, UniProt Q96T88 125-364)).
T2 chain: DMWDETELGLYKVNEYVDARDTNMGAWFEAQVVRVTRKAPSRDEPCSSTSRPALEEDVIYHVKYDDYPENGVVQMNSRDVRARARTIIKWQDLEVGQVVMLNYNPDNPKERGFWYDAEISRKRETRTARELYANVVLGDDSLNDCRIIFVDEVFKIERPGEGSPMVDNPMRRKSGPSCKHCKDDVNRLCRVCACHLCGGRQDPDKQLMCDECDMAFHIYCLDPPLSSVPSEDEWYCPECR

Assay [3] addresses T3, GST-tagged UHRF1 TTD–PHD S298E ( (printed UniProt entry is …, UniProt Q96T88 125-364, S298E)).
T3 sequence: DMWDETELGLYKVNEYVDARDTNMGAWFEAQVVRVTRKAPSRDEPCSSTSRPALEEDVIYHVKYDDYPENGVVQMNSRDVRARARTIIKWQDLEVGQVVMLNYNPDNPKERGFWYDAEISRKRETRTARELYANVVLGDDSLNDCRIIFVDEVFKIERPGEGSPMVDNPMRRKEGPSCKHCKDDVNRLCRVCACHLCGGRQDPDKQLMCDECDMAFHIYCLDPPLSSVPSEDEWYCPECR

For assay [4], the target named is T4, GST-tagged UHRF1 TTD-L2 (a.a. 125–301) ( (printed UniProt entry is …, UniProt Q96T88 125-301)).
T4 chain: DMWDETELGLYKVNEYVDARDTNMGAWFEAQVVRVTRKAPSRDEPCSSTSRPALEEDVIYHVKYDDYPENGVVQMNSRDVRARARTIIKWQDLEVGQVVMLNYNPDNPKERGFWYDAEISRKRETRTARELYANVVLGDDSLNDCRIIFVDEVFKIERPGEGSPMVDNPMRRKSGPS

The target in a further assay is T5, MPP8 chromo (Homo sapiens).
T5 chain: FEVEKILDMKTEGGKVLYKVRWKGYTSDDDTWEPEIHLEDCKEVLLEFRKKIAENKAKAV

Assay [5] addresses T6, GST-tagged chromodomain Y-like protein isoform 2 (CDYL1b) chromodomain ( (printed UniProt entry is …)).
T6 chain: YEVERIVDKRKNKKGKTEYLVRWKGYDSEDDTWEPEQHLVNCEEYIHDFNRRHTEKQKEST

In assay [6] the target is T7, GST-tagged UHRF1 tandem Tudor domain (TTD, a.a. 125–285) ( (printed UniProt entry is …, UniProt Q96T88 125-285)).
T7 chain: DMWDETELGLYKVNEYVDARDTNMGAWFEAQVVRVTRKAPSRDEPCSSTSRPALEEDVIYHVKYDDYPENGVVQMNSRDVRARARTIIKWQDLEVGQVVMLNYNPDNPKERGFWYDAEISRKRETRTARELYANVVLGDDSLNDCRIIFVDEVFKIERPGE

In assay [7] the target is T8, UHRF1 full-length (a.a. 1–793), MBP fusion ( (printed UniProt entry is …, UniProt Q96T88 1-793)).
T8 chain: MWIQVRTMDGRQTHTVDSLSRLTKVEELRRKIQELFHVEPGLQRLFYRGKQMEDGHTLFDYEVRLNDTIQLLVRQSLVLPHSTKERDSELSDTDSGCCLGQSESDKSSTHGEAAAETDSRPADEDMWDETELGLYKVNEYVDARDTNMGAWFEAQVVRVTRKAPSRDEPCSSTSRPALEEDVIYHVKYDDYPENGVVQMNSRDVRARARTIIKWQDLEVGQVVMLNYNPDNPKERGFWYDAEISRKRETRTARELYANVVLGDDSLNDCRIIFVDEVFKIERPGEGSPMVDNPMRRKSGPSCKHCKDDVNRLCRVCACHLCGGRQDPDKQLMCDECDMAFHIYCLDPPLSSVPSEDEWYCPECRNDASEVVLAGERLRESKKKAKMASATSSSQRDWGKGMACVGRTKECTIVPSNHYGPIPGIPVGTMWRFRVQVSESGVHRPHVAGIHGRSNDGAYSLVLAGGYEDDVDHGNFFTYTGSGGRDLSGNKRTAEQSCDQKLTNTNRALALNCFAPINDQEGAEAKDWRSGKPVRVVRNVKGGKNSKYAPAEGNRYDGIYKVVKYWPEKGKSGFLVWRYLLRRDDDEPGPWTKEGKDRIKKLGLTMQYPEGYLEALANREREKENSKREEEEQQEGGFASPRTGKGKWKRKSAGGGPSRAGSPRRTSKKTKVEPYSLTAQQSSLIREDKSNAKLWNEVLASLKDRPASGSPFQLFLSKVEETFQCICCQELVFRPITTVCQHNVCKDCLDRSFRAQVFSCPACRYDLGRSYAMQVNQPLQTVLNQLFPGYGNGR

Where no end group is shown, it is not given here. [ ]: non-standard residue; d: D form. The star is where a group is joined. 5FAM = O=C1OC2(c3ccc(O)cc3Oc3cc(O)ccc32)c2ccc(C(=O)*)cc21; Me2 = dimethyl on lysine side chain; PEG = not defined here

The term Kd denotes the free concentration of one partner at which half of the binding sites on the other are occupied at equilibrium, for simple one-to-one binding. Read a high Kd as a looser complex.

Turning to {FAM}-IPKRRTARK(Me2)QLPK (not fully specified (C-terminus); printed as FAM-LIG1(118–130)K126me2 peptide) [FAM-LIG1(118–130)K126me2 peptide], the Kd was determined as 8 nM in assay [1]; 10 nM in assay [2]; 10 nM in assay [3]; 10 nM in assay [4]; 32000 nM with MPP8 chromo; 6500 nM in assay [5]. In addition, binding in assay [6] was put at a Kd of 40 nM.

Consider 5FAM-IPKRRTARK(Me2)QLPK[PEG][dK][dK][dK][dR][dK][dV]-NH2 (reading uncertain) [FAM-LIG1(118–130)K126me2-PEG-CPP], for which, in assay [7], the affinity, expressed as Kd, was 8 nM.
